For 7 molecules, binding result and binding score results are on record in patent publication US20200339702A1 (ULTRAHUMAN THIRTEEN, published 2020).

The target of assay [1] is T1, human ERBB3 on transiently transfected HEK-293 cells (human, UniProt P21860 20-1342).
T1 construct: also called human ERBB3+ HEK-293 cells
Nature of the assay: flow cytometry, human ERBB3-transfected HEK-293 cells, IgG1 titrated. The protocol: (§1) Purified IgGs were tested in FACs for binding to human and rhesus monkey ERBB3 expressed on transiently transfected HEK-293 cells and HEK-293 wild-type cells. The IgG samples were titrated in three-fold serial dilutions starting at 500 nM to 0.008 nM. Binding of IgGs was detected with a mouse anti-human IgG conjugated to FITC. Results were analyzed by examining the Mean Fluorescence Intensity (MFI) of 10000 cells per sample in the BL-1 channel detector of a flow cytometer (Attune™ NxT Acoustic Focusing Cytometer, Invitrogen/ThermoFisher Scientific).

The next assay deals with T2, human insulin (human, UniProt P01308 25-54; P01308 90-110, limits assumed).
T2 construct: Off-target protein in the development risk (polyreactivity) ELISA
The assay is described as follows: development risk ELISA on insulin. Background: An ELISA detects its analyte on a solid surface through an enzyme-linked reagent.

In assay [2] the target is T3, human ERBB3 His tagged, monomeric (human, UniProt P21860 20-643, biotinylated in the Alphascreen assays (sites not given)).
T3 construct: Used unbiotinylated as Biacore analyte and biotinylated in Alphascreen; treated as one molecule; also called human ERBB3-His (Acrobiosystems); biotinylated monomeric human ERBB3
Nature of the assay: Alphascreen competition in solution, competitor h24C05 IgG1, biotinylated human ERBB3-His.

Assay [3] has as its target T4, rhesus monkey ERBB3 human Fc tagged recombinant protein (rhesus monkey (Macaca mulatta), UniProt P21860 20-643 (human entry), limits assumed).
T4 construct: also called rhesus ERBB3-Fc; rhERBB3
T4 chain: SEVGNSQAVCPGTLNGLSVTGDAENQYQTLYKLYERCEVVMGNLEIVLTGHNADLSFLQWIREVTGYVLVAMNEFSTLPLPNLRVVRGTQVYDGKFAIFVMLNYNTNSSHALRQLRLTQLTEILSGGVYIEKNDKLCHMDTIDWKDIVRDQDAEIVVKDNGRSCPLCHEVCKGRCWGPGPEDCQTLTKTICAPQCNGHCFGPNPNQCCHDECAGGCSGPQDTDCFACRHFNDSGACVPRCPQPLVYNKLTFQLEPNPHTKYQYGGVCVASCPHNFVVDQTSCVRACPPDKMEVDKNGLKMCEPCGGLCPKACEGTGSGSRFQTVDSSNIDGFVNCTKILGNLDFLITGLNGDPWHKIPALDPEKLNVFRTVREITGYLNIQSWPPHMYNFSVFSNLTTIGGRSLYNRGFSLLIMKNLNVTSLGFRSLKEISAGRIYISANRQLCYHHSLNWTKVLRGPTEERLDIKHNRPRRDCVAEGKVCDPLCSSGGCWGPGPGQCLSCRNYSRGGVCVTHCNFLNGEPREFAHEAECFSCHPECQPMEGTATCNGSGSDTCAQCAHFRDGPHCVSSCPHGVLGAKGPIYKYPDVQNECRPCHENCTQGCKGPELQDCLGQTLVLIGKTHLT
The assay is described as follows: direct binding ELISA on coated rhesus ERBB3-Fc, IgG1 titrated. The protocol: (§2) Binding and cross-reactivity of the lead panel to the recombinant proteins was initially assessed by binding ELISA. The human ERBB3 human Fc tagged recombinant protein and the rhesus monkey ERBB3 human Fc tagged recombinant protein were coated to the surface of MaxiSorp™ flat-bottom 96 well plate at 1 μg/ml. The purified IgG samples were titrated in two fold serial dilutions starting from 500 nM to 0.008 nM and allowed to bind to the coated antigens. The Fabs were detected using mouse anti-c-myc antibody followed by donkey anti-mouse IgG conjugated to horseradish peroxidase. The IgGs were detected using the mouse anti-human IgG conjugated to horseradish peroxidase. Binding signals were visualized with 3,3′,5,5′-Tetramethylbenzidine Substrate Solution (TMB) and the absorbance measured at 450 nm.

For assay [4], the target named is T5, human ERBB3 human Fc tagged recombinant protein (human, UniProt P21860 20-643).
T5 construct: also called human ERBB3-Fc; huERBB3
The assay is described as follows: direct binding ELISA on coated human ERBB3-Fc, IgG1 titrated. The protocol: as §2

Assay [5] has as its target T6, rhesus ERBB3 on transiently transfected HEK-293 cells (rhesus monkey (Macaca mulatta), UniProt P21860 20-1342 (human entry)).
T6 construct: also called rhesus ERBB3+ HEK-293 cells
T6 chain: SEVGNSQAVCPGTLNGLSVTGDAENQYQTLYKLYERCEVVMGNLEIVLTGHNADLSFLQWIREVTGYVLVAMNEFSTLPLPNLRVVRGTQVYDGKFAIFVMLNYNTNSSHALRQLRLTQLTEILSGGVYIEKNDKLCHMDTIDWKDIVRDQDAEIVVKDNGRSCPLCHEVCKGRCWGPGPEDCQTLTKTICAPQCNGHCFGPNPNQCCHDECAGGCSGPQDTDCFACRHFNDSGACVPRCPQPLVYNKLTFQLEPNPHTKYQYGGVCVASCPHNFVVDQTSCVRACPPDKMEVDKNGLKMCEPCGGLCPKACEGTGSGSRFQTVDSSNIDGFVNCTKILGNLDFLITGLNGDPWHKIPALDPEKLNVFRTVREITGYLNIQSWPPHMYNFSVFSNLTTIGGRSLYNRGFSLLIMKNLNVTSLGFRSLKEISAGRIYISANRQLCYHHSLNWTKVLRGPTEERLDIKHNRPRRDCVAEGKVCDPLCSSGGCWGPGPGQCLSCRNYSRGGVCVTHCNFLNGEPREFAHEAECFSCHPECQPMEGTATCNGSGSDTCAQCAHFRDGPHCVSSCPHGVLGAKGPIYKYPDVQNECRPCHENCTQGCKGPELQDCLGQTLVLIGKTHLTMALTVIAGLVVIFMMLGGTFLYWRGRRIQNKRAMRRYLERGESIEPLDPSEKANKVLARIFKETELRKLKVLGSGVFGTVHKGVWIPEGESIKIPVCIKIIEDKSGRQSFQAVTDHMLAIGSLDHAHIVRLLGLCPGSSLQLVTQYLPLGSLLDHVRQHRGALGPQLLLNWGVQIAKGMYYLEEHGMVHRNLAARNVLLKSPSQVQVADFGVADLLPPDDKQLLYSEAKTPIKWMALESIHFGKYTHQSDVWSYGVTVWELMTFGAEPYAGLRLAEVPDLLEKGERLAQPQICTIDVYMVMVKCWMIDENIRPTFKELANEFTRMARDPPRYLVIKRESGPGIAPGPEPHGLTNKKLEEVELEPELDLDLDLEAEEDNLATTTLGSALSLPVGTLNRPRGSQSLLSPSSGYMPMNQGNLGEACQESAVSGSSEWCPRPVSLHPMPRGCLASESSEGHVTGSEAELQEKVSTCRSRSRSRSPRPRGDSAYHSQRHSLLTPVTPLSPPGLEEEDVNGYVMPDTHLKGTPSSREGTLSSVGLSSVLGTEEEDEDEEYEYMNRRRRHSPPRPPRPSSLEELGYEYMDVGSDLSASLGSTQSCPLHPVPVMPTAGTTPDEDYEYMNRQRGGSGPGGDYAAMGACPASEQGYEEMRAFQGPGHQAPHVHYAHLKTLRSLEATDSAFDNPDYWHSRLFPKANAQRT
Nature of the assay: flow cytometry, rhesus ERBB3-transfected HEK-293 cells, IgG1 titrated. The protocol:
as §1
(In general: Flow cytometry measures light scatter and fluorescence of single cells or particles in a stream.)

Substitutions are numbered along the chain they refer to.

T2 sequence (P01308 25-54 limits assumed, chain 1 of 2): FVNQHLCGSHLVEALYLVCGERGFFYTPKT
T2 sequence (P01308 90-110 limits assumed, chain 2 of 2): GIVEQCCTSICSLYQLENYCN

B1: 15G11-DI2 IgG1 (antibody, V domains shown)
VH: QVQLVESGGGLVKPGGSLRLSCAASGFTFSDYGMSWVRQAPGKGLEWVSTISDSGSYTYYPDSVKGRFTISRDNAKNSLYLQMNSLRAEDTAVYYCARELGDYDGFDYWGQGTLVTVSS
VL: DIQMTQSPSSLSASVGDRVTITCRASQEISTYLSWYQQKPGKAPKLLIYAASSLDTGVPSRFSGSGSGTDFTLTISSLQPEDFATYYCLQYDSTPYTFGGGTKVEIK
notes: Human IgG1 format, human Ckappa
As to B1, the binding result in assay [1], in assay [2], in assay [3], in assay [4] and in assay [5] was “binds” each time. For the same molecule, the binding score with human insulin is less than 10.

B2: 15G11-DI7 IgG1 (antibody, V domains shown)
VH: B1 VH with G33S, V37I, S56T, L100W, Y108F
VL: B1 VL with T31S, T94S
notes: Human IgG1 format, human Ckappa; also called 15G11-D17
B2: the binding result in assay [1], in assay [2], in assay [3], in assay [4] and in assay [5] was “binds” in each case. In the assay with human insulin, this molecule registered a binding score of less than 10.

B3: 15G11-DI4 IgG1 (antibody, V domains shown)
VH: B1 VH
VL: B1 VL with T94S
notes: as for B1
Consider B3, for which the binding result in assay [1], in assay [2], in assay [3], in assay [4] and in assay [5] was “binds” each time. In the assay with human insulin, this molecule returned a binding score of less than 10.

B4: 15G11-DI9 IgG1 (antibody, V domains shown)
VH: B1 VH with G33S, V37I, S56T, L100W, Y108F
VL: B1 VL with S53T, D55Q, T56S, T94S, Y96L
notes: as for B1
For the molecule B4, the binding result in assay [1], in assay [2], in assay [3], in assay [4] and in assay [5] was “binds” throughout. In addition, in the assay with human insulin, the binding score was less than 10.

B5: 15G11-DI10 IgG1 (antibody, V domains shown)
VH: B1 VH
VL: B1 VL with T31S, I48A, T56S
notes: as for B1
For B5, the binding result in assay [1], in assay [2], in assay [3], in assay [4] and in assay [5] was “binds” throughout.

B6: 15G11-DI8 IgG1 (antibody, V domains shown)
VH: B1 VH with G33S, V37I, S56T, L100W, Y108F
VL: B1 VL with T94S
notes: as for B1
B6: the binding result in assay [1], in assay [2], in assay [3], in assay [4] and in assay [5] was “binds” throughout. In the assay with human insulin, this molecule showed a binding score of less than 10.

B7: 15G11-DI3 IgG1 (antibody, V domains shown)
VH: B1 VH
VL: B1 VL with T31S, T94S
notes: as for B1
For B7, the binding result in assay [1], in assay [2], in assay [3], in assay [4] and in assay [5] was “binds” each time. The molecule further had a binding score in the assay with human insulin of less than 10.
